Source: the supplement of paper PMC9170038

System: MS2 coat protein
Test: apparent KD of MS2 coat protein; designed switch direction (-1 OFF switch, 1 ON switch): -1; higher = weaker reporter binding
In short: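 Each step of the titration lasted 0.8–1.5 h at the lowest concentration and 10–20 min at the highest. The protein, SNAP-549-labelled MS2 coat protein, went from 0.7 or 1.5 nM doubling to 3 µM over RNA switches transcribed on Illumina chips by stalled E. coli RNA polymerase. Normalised cluster fluorescence was curve-fitted, and the per-design median over clusters is given as apparent KD.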

[1] = input ligand: microRNA oligo, concentration not stated
[2] = Eterna round: R95, input ligand: microRNA oligo, concentration not stated
[3] = Eterna round: R95, input ligand: FMN 200 uM
[4] = Eterna round: R95, input ligand: none

Sequence	apparent KD of MS2 coat protein (input ligand: FMN 200 uM)	apparent KD of MS2 coat protein [1]	apparent KD of MS2 coat protein (input ligand: none)	apparent KD of MS2 coat protein [2]	apparent KD of MS2 coat protein [3]	apparent KD of MS2 coat protein [4]
GUUCGUGGGCAAGGAUAUCCUACGCUGUUCUGGUUCGUGUCUGUCACAUGAGGAUCACCCAUGUGGGAGAAGGUGCAUUUGGGU [Design 57] (Eterna round: R96, puzzle: Exclusion NG 2)	18.9 nM	15.1 nM	20.1 nM			
AUGGACGCAGGAUAUACAUGAGGAUCACCCAUGUUAGGGUUGUGAGUAGGAAGGGAAGGUAGAAGGGCGAGAGU [JR_Exclu3_Sub099] (puzzle: Exclusion 3)				86.9 nM		
GUGCCGCGAGGAUAUACAGACGGGUCCAAAACGUGUCUCGGACUUGAGGAUCACCCAAGUAGAAGGCGUAUCAG [salish99_ex2_r4_619] (Eterna round: R97, puzzle: Exclusion 2)	27.8 nM		21.4 nM			
AAAAAACAAGGAUAUACUAAGGAUGAUUAUCUUAAUUUUUGACAUGAGGAUCACCCAUGUAGAAGGUGUUAAAA [JR_Exclusion2_Sub007] (puzzle: Exclusion 2)				47.5 nM	98.9 nM	41.2 nM
GCAGAUGUAGUGAGGAUAUGCUCUACCUCGGUAGAGCAGAAGGCACAUGAGGAUCACCCAUGUGAUUCAUCUGC [Omei Ex4B B7] (Eterna round: R97, puzzle: Brourd's mod of Exclusion 4)	211 nM		28.6 nM			
UCCAUCCCUGUGAGGAUAUCGUCCGUUUUUUGUUCCGAGAAGGCACAUGAGGAUCACCCAUGUUUUUUGUUUUU [JR_BMOE4_Sub077] (puzzle: Brourd's mod of Exclusion 4)				30.2 nM		
AGAGAAUAGACAGGAUAUGAGAAUAGAUAGAGCUCAGAAGGGUCACAUGAGGAUCACCCAUGUGAAGUCUUGAGGCUGCGUGGA [Prohibition 19 - Jieux - Exclusion NG 1] (Eterna round: R96, puzzle: Exclusion NG 1)	14.6 nM	10.9 nM	18.3 nM			
AAUCCUAGCGUAAGGAUAUCAAAACUAUCCCGUUAUGAGAAGGUACAUGAGGAUCACCCAUGUUAAUGGGAUAA [BmEX4 A.19] (Eterna round: R97, puzzle: Brourd's mod of Exclusion 4)	20.2 nM		19.3 nM			
UAAGGUGGUACCAUGAACAUGAGGAUCACCCAUGUACCUUAGAAGGAUAUCGCGACGUGUACGCGCGAGAAGGUCUACAACGUA [Eternabot solution 35] (Eterna round: R96, puzzle: Exclusion NG 3)	162 nM	70.1 nM	77.5 nM			
AGUACUAACACGAAAGUGUUAGUACUAUAAGCUUGUGUUACAUGAGGAUCACCCAUGUCCUCAUAAGCUCGUCUUAA [Mat - Sensor v3 - Turn-off var 2 - D63] (puzzle: Sensor v3, turn-off variant 2)				437 nM	35.2 nM	41 nM
CUUCGGGCAGGAUAUGCUGUUUGUGACAUGAGGAUCACCCAUGUGAUGCAGUUUGGGUGUGCAGAAGGGCCUGAGU [JR_E5_Sub031] (puzzle: Exclusion 5)				43.7 nM		
UAAUACAUCUAUGGGAGUAACAUGAGGAUCACCCAUGUAUGUCUUGUUUUUUGUUCGUCAAAGACUUUCUGAUCAGU [JR_SV3TOV1_Sub030] (puzzle: Sensor v3, turn-off variant 1)				191 nM	76.7 nM	83.2 nM
UACAUGAGGAUCACCCAUGUUUUGUCGUGUAUGGUACCCGUCUAGGAUAUCGUGUUAUUGGACCGCGAGAAGGAGAGUAUCAAU [Excl-NG3-LRO03] (Eterna round: R96, puzzle: Exclusion NG 3)	26.4 nM	20.2 nM	33.5 nM			
UAAGCAAGCGAAAGAUCCCACAUGAGGAUCACCCAUGUGCUCGUCUUAUAAGGUACUGUGACGAAAGUCACGGUACC [Sensor 3, v1 - 91 v22] (Eterna round: R97, puzzle: Sensor, turn-off variant 1)	140 nM		128 nM			
UCACGGGACUAAGGAUAUACAUGAACUAUUAUUGUAGAAGGUAGAAUGUUAGAUUAUACACUAAACAUGAGGAUCACCCAUGUU [JR_ExcNG1_Sub094] (Eterna round: R96, puzzle: Exclusion NG 1)		15.9 nM				
AGUGUGUGGCAGGAUAUUCUAAUCGUGAGUAGGGAAGAAGGGUCUACAUGAGGAUCACCCAUGUAAGCGGUUGA [Ex6 #43] (Eterna round: R97, puzzle: Exclusion 6)	257 nM		209 nM			
CUGGUCCGAGGAUAUAUUAAGUGAAACAUGAGGAUCACCCAUGUUAUUUGAUGGAUGUAAAUAGAAGGCGGACUAG [JL-ex5-3.13] (puzzle: Exclusion 5)				33.1 nM	23.8 nM	49.1 nM

Sequence	apparent KD of MS2 coat protein (input ligand: FMN 200 uM)	apparent KD of MS2 coat protein [1]	apparent KD of MS2 coat protein (input ligand: none)	apparent KD of MS2 coat protein [2]	apparent KD of MS2 coat protein [3]	apparent KD of MS2 coat protein [4]
UGUUGUUACGCAGGAUAUGUAUGAGGAUCACCCAUAAGAGUUGAUGUACCAUGAGGAUCACCCAUGUAGAAGGGCGGGUUAACA [pwkr exNG2 2xF5 1xFMN.9] (Eterna round: R96, puzzle: Exclusion NG 2)	365 nM	194 nM	234 nM			
ACCUCACAUGAGGAUCACCCAUGUCAGGAUAUAUUGUGCAAGCGCCGUGGCGUAUGUAGUAGAAGGGACGAAAC [Eternabot (L1) Solution 77] (Eterna round: R97, puzzle: Exclusion 1)	18.3 nM		17.8 nM			
AAGUAUAGAGGAUAUAGUAGGUACAACAUGAGGAUCACCCAUGUUCUUCAUAACGUAUUUCUAGAAGGCUGAUAAA [EX-5 Malc#27] (Eterna round: R96, puzzle: Exclusion 5)	356 nM	135 nM	126 nM			
GCUCGCGGGCAAGGAUAUCCUACGCUGUUCUGGUUCGUGUCUGUUACAUGAGGAUCACCCAUGUGGGAGAAGGUGCACCAGGGU [Design 49] (Eterna round: R96, puzzle: Exclusion NG 2)	17.5 nM	12.4 nM	20.1 nM			
CUUAAAAGGAAGGAUAUGCUAGACGAAAGUCUAGCAGAAGGUCCUACAUGAGGAUCACCCAUGUGUCCUAUAAG [Mat - Exclusion 6 - Eli Mod - D13] (Eterna round: R97, puzzle: Exclusion 6)	72.4 nM		81.1 nM			
UAUUUAGCAAGCAGAUCCCACAUGAGGAUCACCCAUGUUUUCUGAAUGUACAGAAUUACUGUACUUGCUCGUCUUAU [Winner reversed engineered 36] (Eterna round: R97, puzzle: Sensor, turn-off variant 1)	76.2 nM		82.6 nM			
GCUGGAGCAGGAUAUUCAAUAUCACACAUGAGGAUCACCCAUGUCCAGCGAAAGCUGGAGGGAGAAGGGCUCUAGC [Mat - Exclusion 5 - Eli mod - D98] (puzzle: Exclusion 5)				60.4 nM	17.6 nM	76 nM
AUCAUGUAAGGAUAUCUUAUAUGGAUCUUCGGAUCAAGUUAAGAGAAGGUACAUGAGGAUCACCCAUGUAUAAC [Ex4-3: 32] (puzzle: Exclusion 4)				24.3 nM		
ACAAGCUUAAUCUGUAUGAACAUGAGGAUCACCCAUGUAUAAGGGAAUUCUUUUGGGUUUUUUAUUGCUCGUCUUAU [JR_STOV1_Sub021] (Eterna round: R97, puzzle: Sensor, turn-off variant 1)	317 nM		311 nM			
CAGGGCGCAGGAUAUAUCACAAUGCACAUGAGGAUCACCCAUGUCAUCCUCGCGCUUGAGAUAGAAGGGUGAAACC [Eternabot (L1) Solution 65] (Eterna round: R97, puzzle: Exclusion 5)	21.1 nM		23.7 nM			
AAUAGCAAGUAAGAUCCUAACAUGAGGAUCACCCAUGUGCUCGUCUUGUAAAGUACUAUCACGAAAGUGAUAGUACA [Sensor 3, v1 - 50] (puzzle: Sensor v3, turn-off variant 1)				69.4 nM	108 nM	146 nM
AAAAGGUGAGGAUAUGAGGCGCCGGGCCGGUUGGUGCGGAUUCAGAAGGCACAUGAGGAUCACCCAUGUAAUAA [Excls4-II] (puzzle: Exclusion 4)				38.7 nM	52.2 nM	50.4 nM
CAGUACUGAGGAUAUACAUGAGGAUCACCCAUGUUUUCCAGCUAGGAAACUAGCAAGUGUAGAAGGCAGUACUG [Salish 065 m6] (Eterna round: R97, puzzle: Exclusion 3)	342 nM		25.6 nM			
UUAAUUAGCUCGCUAGAUCCUCACAUGAGGAUCACCCAUGUGCAGGAUAUCAGCUCGUUUAGAGCUGAGAAGGGCACUGCGAGC [ExNG3/10-A2] (Eterna round: R96, puzzle: Exclusion NG 3)	147 nM	120 nM	114 nM			
UUCUUGGCAGGAUAUGCUCUUUUAGACAUGAGGAUCACCCAUGUGUUUAUUCUUUUUUUUGCAGAAGGGCCUUAAU [JR_E5_Sub044] (Eterna round: R96, puzzle: Exclusion 5)	176 nM	68.6 nM	98.1 nM			
GUUCUGUCAGGAUAUCAAUCCGCCUGUGAUACGCAGGCGGCUGAGAAGGGACAUGAGGAUCACCCAUGUAAAGA [jl-ex4-4.23 ViennaUCT mod] (Eterna round: R97, puzzle: Exclusion 4)	74 nM		41.2 nM			
